From patent US9371374

Assays:
Assay in all cases: EIA, captured mAb
[1] = target: biotinylated HCV core peptide 134-154 (Peptide 1) (HCV-1)
[2] = target: biotinylated HCV core peptide 151-171 (Peptide 3) (HCV-1)
[3] = target: biotinylated HCV core peptide 141-161 (Peptide 2) (HCV-1)

Row | Binder | Reactivity (OD492) [1] | Reactivity (OD492) [2] | Reactivity (OD492) [3]
1 | HCV 208A-1064 (antibody, V domains shown) VH: EVQLQQSGPELVKPGASVKISCKTSGYTFTEYAMHWMKQSHGKSLEWIGGINPTNGDTIYNQKFKDKAKLTVDRSSSTAYMELRSLTSDDSALFYCARRELDYFASWGQGTTLTVSS VL: DIVLTQSPASLIVSLGQTATISCRASQSVSTSRFSYLHWIQQKPGQPPKLLIKYASNLESGVPVRFSGSGSGTDFTLNIHPVEEEDTATYFCQHSWEFPFTFGSGTKLKIKR | 0.1 OD | 0.12 OD | 3.5 OD
2 | HCV 208A-222 (antibody, V domains shown) VH: EVQLQQSGPELEKPGASVRISCKTSGYTFTEYAMHWVKQSHGKSLEWIGGINPNNGNAIYNQIFKDKATLTVDRSSSTAYMGLRSLTFGDSGVYFCVRRQLDYFDYWGQGASLTVSS VL: DIVVTQSPASLAVSLGQRATISCRASQSVSTSRYSYLHWYQQKPGQPPKLLIKYASNLESGVPARFSGSGSGTDFTLNIHPVGEEDTATYYCQHSWEFPFTFGSGTKLEIKR | 0.06 OD | 0.08 OD | 2.7 OD
3 | HCV 208A-133 (antibody, V domains shown) VH: QLQQSGPVLVGPGASVMISCKTSGYTFTENAMHWVEQSHGKSLEWIGGVNPNNGDTIFNQKFKGKATLTVDKSSSTAFMEFRSLTSEESTVYYCVRRELDFFDYWGQGTSVTVSS VL: DIVLTQSPASLAVSLGQRATISCRASQSVSTSRYSYMHWYQQKPGQPPKLLIKYASNLESGVPARFSGSGSGTDFTLNIHPVAEEDTATYYCQHSWEFPFTFGSGTKLEIKR | 0.1 OD | 0.13 OD | 3.68 OD
4 | HCV 208A-605 (antibody, V domains shown) VH: EVQLQQSGPELEKPGASVKISCKTSGYTFTEYAIHWVKQSHGMSLEWIGGINPSNGNAIYNQIFKDKATLTVDRSSSTAYMGLRSLTFGDSGVYFCVRRQLDFFDYWGQGASLTVSS VL: DIVVTQSPASLAVSLGQRATISCRASQSVSTSRYSYLHWYQQKPGQPPKLLIKYASNLESGVPARFSGSGSGTDFTLNIHPVGEEDTATYYCQHSWEFPFTFGSGTKLEIKR | 0.22 OD | 0.16 OD | 3.71 OD
5 | HCV 208A-126 (antibody, V domains shown) VH: QLQQSGPVLVKPGASVMISCKTSGYTFTENAMHWVKQSHGKSLEWIGGVNPNNGDTIFNQKFKGKATLTVDKSSNTAFTELRSLPSEESTVYYCVRRGLDFFDYWGQGTSVTVSS VL: DIVLTQSPASLAVSLGQRATISCRASQSVSTSRYSYMHWYQQKPGQPPKLLIKYASNLESGVPARFSGSGSGTDFTLNIHPVAEEDTAAYYCQHSWEFPFTFGSGTKLEIKR | 0.2 OD | 0.1 OD | 2.08 OD
6 | HCV 208A-293 (antibody, V domains shown) VH: EVQLQQSGPELVKPGASVKISCKASGFTFTEYAMHWMKQSHGKSLEWIGGINPTNGDAIYNQKFKDKAKLTVDRSSSTAYMELRSLTSDDSALFYCARRELDYFPSWGQGTTLTVSS VL: DIVLTQSPASLIVSLGQRATISCRASQSVSTSRFSYVHWIQQKPGQPPKLLIKYASNLESGVPVRFSGSGSGTDFILNIHPVEEEDTATYFCQHSWEFPFTFGSGTKLEIKR | 0.08 OD | 0.11 OD | 2.42 OD
7 | HCV 208A-159 (antibody, V domains shown) VH: QLQQSGPAQVKPGASVMISCKTSGYTFTENAMHWVKQSHGKSLEWIGGVNPNNGDTIFNQKFKDKAALTVDKSSSTAFMELRSLTSEESTVYYCVRRELDFFDYWGQGTSVTVSS VL: DIVLTQSPASLAVSLGQRATISCRASQSVSTSRYSYVHWYQQKPGQPPKLLIKYAANLESGVPARFSGSGSGTDFTLNIHPVAEEDAAAYYCQHSWEFPFTFGSGTKLEIKR | 0.15 OD | 0.19 OD | 3.77 OD
8 | HCV 208A-422 (antibody, V domains shown) VH: DVQLQESGPGLVNPSQSLSLTCSVTGYSITSGYYWIWIQQSPGNKLEWMGYIKYDGGNNYSPSLKNRISIARDTSKNQCFLKLNSVTIEDTATYYCTRGSDSFDYWGQGTTLTVSS VL: DIVLTQSPASLAVSLGQRAIISCKASQSVSFAGTNLMHWYQQKPGQQPKLLIYRASNLETGVPTRFSGSGSRTDFTLNIHPVEEDDAATYYCQQSREYYTFGGGTKLEIKR | 0.05 OD | 0.1 OD | 0.84 OD
9 | HCV 208A-442 (antibody, V domains shown) VH: DVQLQESGPGLVNPSQSLSLTCSVTGYSITSGYYWIWIRQFPGNKLEWMGYIKYDGGNNYSPSLKNRISIARDTSKNQFFLKLNSVTIEDTATYYCTRGSDSFDYWGQGTTLTVSS VL: DIVLTQSPASLAVSLGQRAIISCKASQSVSFAGTNLMHWYQQKPGQQPKLLIYRASNLETGVPTRFSGSGSRTDFTLNIHPVEEDDAATYYCQQSREYYTFGGGTKLEIKR | 0.08 OD | 0.06 OD | 3.04 OD
10 | HCV 208A-210 (antibody, V domains shown) VH: QVQLQQSGPELVKPGASMRISCKASGYTFTSYYVHWIKQRPGQGLEWIGCIYPGDVNTDYNEKFKGKATLTADKSSSTAYMQVSTLTSEDSAIYFCVLYYYGSFAYWGQGTLVTVSA VL: EIVLTQSPAITAASLGQNVTITCRASSSVSYMHWYRQKSGTSPQLWIYEISRRASGVPARFRASGSGTSYSLTISSMEAEDAAIYYCQQWNYPLTFGAGTKLEVKR | 0.06 OD | 0.05 OD | 1.15 OD
11 | HCV 208A-134 (antibody, V domains shown) VH: QGQMQQSGAELAKPGASVKLSCKTSGFTFSSSYISWLKQKPGQSLEWIAWIYAGTGNTNYNQKFTDKAQLTVDTSSSTAYMQLSSLTTEDSAIYYCAISGTGFTYWGQGTLVTVSA VL: EVLMTQSPLSLPVSLGDQASISCRSSQSLEHTNGNTYLEWFLQRPGQPPKLLIYKVSSRFSGVPDRFSGSGSGTDFTLKISRVEAEDLGVYYCFQGSHVPFTFGSGTKLAIKR | 2.06 OD | 0.06 OD | 0.08 OD
12 | HCV 208A-352 (antibody, V domains shown) VH: QGQMQQSGAELVKPGASVKLSCKTSGFTFSSSFISWLKQKPGQSLEWIAWIYAGTGNTNYNQKFTDKAQLTVDTSSSTAYMQFSSLTTEDSAIYYCAISGTGFTYWGQGTLVTVSA VL: DVLMAQTPLSLPVTLGDQASISCRSSQSLVHSNGNTYLEWFLQKPGQSPKLLIYNVSNRFSGVPDRFSGSGSGTDFTLKISRVEAEDLGVYYCFQGSHVPLTFGSGTKLEIKR | 1.08 OD | 0.06 OD | 0.07 OD
13 | HCV 208A-557 (antibody, V domains shown) VH: QGQMQQSGAELVKPGASVKLSCKTSGFTFSSSYISWLKQKPGQSLEWIAWIYAGTGNTNYNQKFTDKAQLTVDTSSSTAYMQLSSLTTEDSAIYYCAISGTGFTYWGQGTLVTVSA VL: DIALTQSPASLAVSLGQRATISCRASQSVSTSRYSYMHWYQQKPGQPPELLIKYASNLESGVPARFSGSGSGTDFTLNIHPVGEEDTATYYCQHSWDFPFTFGSGTKLEIKR | 0.05 OD | 0.06 OD | 2.41 OD
14 | HCV 208A-207 (antibody, V domains shown) VH: QGQLQQPGAEFVKPGASLKLSCRASGYTFTSYWIHWVKQRPGQGLEWIGEIDPSDSYINQNQKFRGKATLTVDKSSSTAYMELSGLTSEDSAVYYCARHYYGVLDSWGQGTTLTVSS VL: DIVLTQSPATLSVTPGDRVSLSCRASQRIYNYLHWYQQKSHESPRLLTKYASQSISGIPSRFSGSGSGTDFILTINSVETEDFGMYFCQQSNSWPLTFGAGTKLELRR | 1.24 OD | 0.08 OD | 0.17 OD
